Molecular target: MetCb purified individually (Aminobacter sp. strain NyZ550)
Assay: not stated; purified MetCb alone in solution; experiment not described

stoichiometry N: 6
Substance: MetCb purified individually (natural protein)

From publication PMC11271267
